# Reference: IntAct's records for PubMed 16951355
# B1: ICOS ligand (Homo sapiens), O75144 (parent)
# chain: MRLGSPGLLFLLFSSLRADTQEKEVRAMVGSDVELSCACPEGSRFDLNDVYVYWQTSESKTVVTYHIPQNSSLENVDSRYRNRALMSPAGMLRGDFSLRLFNVTPQDEQKFHCLVLSQSLGFQEVLSVEVTLHVAANFSVPVVSAPHSPSQDELTFTCTSINGYPRPNVYWINKTDNSLLDQALQNDTVFLNMRGLYDVVSVLRIARTPSVNIGCCIENVLLQQNLTVGSQTGNDIGERDKITENPVSTGEKNAATWSILAVLCLLVVVAVAIGWVCRDRCLQHSYAGAWAVSPETELTGHV
# Variants of: B1
# Settings: with icos_human ICOS
row,Variant,effect of a mutation on the interaction
1,MRLGSPGLLFLLFSSLRADTQEKEVRAMVGSDVELSCACPEGSRFDLNDVAVYWQTSESKTVVTYHIPQNSSLENVDSRYRNRALMSPAGMLRGDFSLRLFNVTPQDEQKFHCLVLSQSLGFQEVLSVEVTLHVAANFSVPVVSAPHSPSQDELTFTCTSINGYPRPNVYWINKTDNSLLDQALQNDTVFLNMRGLYDVVSVLRIARTPSVNIGCCIENVLLQQNLTVGSQTGNDIGERDKITENPVSTGEKNAATWSILAVLCLLVVVAVAIGWVCRDRCLQHSYAGAWAVSPETELTGHV [Y51A],disrupting interaction strength
2,MRLGSPGLLFLLFSSLRADTQEKEVRAMVGSDVELSCACPEGSRFDLNDVFVYWQTSESKTVVTYHIPQNSSLENVDSRYRNRALMSPAGMLRGDFSLRLFNVTPQDEQKFHCLVLSQSLGFQEVLSVEVTLHVAANFSVPVVSAPHSPSQDELTFTCTSINGYPRPNVYWINKTDNSLLDQALQNDTVFLNMRGLYDVVSVLRIARTPSVNIGCCIENVLLQQNLTVGSQTGNDIGERDKITENPVSTGEKNAATWSILAVLCLLVVVAVAIGWVCRDRCLQHSYAGAWAVSPETELTGHV [Y51F],decreasing interaction strength
3,MRLGSPGLLFLLFSSLRADTQEKEVRAMVGSDVELSCACPEGSRFDLNDVYVYWQTSESKTVVTYHIPQNSSLENVASRYRNRALMSPAGMLRGDFSLRLFNVTPQDEQKFHCLVLSQSLGFQEVLSVEVTLHVAANFSVPVVSAPHSPSQDELTFTCTSINGYPRPNVYWINKTDNSLLDQALQNDTVFLNMRGLYDVVSVLRIARTPSVNIGCCIENVLLQQNLTVGSQTGNDIGERDKITENPVSTGEKNAATWSILAVLCLLVVVAVAIGWVCRDRCLQHSYAGAWAVSPETELTGHV [D77A],with no effect
4,MRLGSPGLLFLLFSSLRADTQEKEVRAMVGSDVELSCACPEGSRFDLNDVYVYWQTSESKTVVTYHIPQQSSLENVDSRYRNRALMSPAGMLRGDFSLRLFNVTPQDEQKFHCLVLSQSLGFQEVLSVEVTLHVAANFSVPVVSAPHSPSQDELTFTCTSINGYPRPNVYWINKTDNSLLDQALQNDTVFLNMRGLYDVVSVLRIARTPSVNIGCCIENVLLQQNLTVGSQTGNDIGERDKITENPVSTGEKNAATWSILAVLCLLVVVAVAIGWVCRDRCLQHSYAGAWAVSPETELTGHV [N70Q],with no effect
5,MRLGSPGLLFLLFSSLRADTQEKEVRAMVGSDVELSCACPEGSRFDLNDVYVYWQTSESKTVVTYHIPQNSSLENVDSRARNRALMSPAGMLRGDFSLRLFNVTPQDEQKFHCLVLSQSLGFQEVLSVEVTLHVAANFSVPVVSAPHSPSQDELTFTCTSINGYPRPNVYWINKTDNSLLDQALQNDTVFLNMRGLYDVVSVLRIARTPSVNIGCCIENVLLQQNLTVGSQTGNDIGERDKITENPVSTGEKNAATWSILAVLCLLVVVAVAIGWVCRDRCLQHSYAGAWAVSPETELTGHV [Y80A],disrupting interaction strength
6,MRLGSPGLLFLLFSSLRADTQEKEVRAMVGSDVELSCACPEGSRFDLNDVYVYWATSESKTVVTYHIPQNSSLENVDSRYRNRALMSPAGMLRGDFSLRLFNVTPQDEQKFHCLVLSQSLGFQEVLSVEVTLHVAANFSVPVVSAPHSPSQDELTFTCTSINGYPRPNVYWINKTDNSLLDQALQNDTVFLNMRGLYDVVSVLRIARTPSVNIGCCIENVLLQQNLTVGSQTGNDIGERDKITENPVSTGEKNAATWSILAVLCLLVVVAVAIGWVCRDRCLQHSYAGAWAVSPETELTGHV [Q55A],decreasing interaction strength
7,MRLGSPGLLFLLFSSLRADTQEKEVRAMVGSDVELSCACPEGSRFDLNDVYVYWQTSESKTVVTYHIPQNSSLENVDSRYRNRALMSPAGMLRGDFSARLFNVTPQDEQKFHCLVLSQSLGFQEVLSVEVTLHVAANFSVPVVSAPHSPSQDELTFTCTSINGYPRPNVYWINKTDNSLLDQALQNDTVFLNMRGLYDVVSVLRIARTPSVNIGCCIENVLLQQNLTVGSQTGNDIGERDKITENPVSTGEKNAATWSILAVLCLLVVVAVAIGWVCRDRCLQHSYAGAWAVSPETELTGHV [L98A],with no effect
8,MRLGSPGLLFLLFSSLRADTQEKEVRAMVGSDVELSCACPEGSRFDANDVYVYWQTSESKTVVTYHIPQNSSLENVDSRYRNRALMSPAGMLRGDFSLRLFNVTPQDEQKFHCLVLSQSLGFQEVLSVEVTLHVAANFSVPVVSAPHSPSQDELTFTCTSINGYPRPNVYWINKTDNSLLDQALQNDTVFLNMRGLYDVVSVLRIARTPSVNIGCCIENVLLQQNLTVGSQTGNDIGERDKITENPVSTGEKNAATWSILAVLCLLVVVAVAIGWVCRDRCLQHSYAGAWAVSPETELTGHV [L47A],with no effect
9,MRLGSPGLLFLLFSSLRADTQEKEVRAMVGSDVELSCACPEGSRFDLNDVYVYWQTSESKTAVTYHIPQNSSLENVDSRYRNRALMSPAGMLRGDFSLRLFNVTPQDEQKFHCLVLSQSLGFQEVLSVEVTLHVAANFSVPVVSAPHSPSQDELTFTCTSINGYPRPNVYWINKTDNSLLDQALQNDTVFLNMRGLYDVVSVLRIARTPSVNIGCCIENVLLQQNLTVGSQTGNDIGERDKITENPVSTGEKNAATWSILAVLCLLVVVAVAIGWVCRDRCLQHSYAGAWAVSPETELTGHV [V62A],decreasing interaction strength
10,MRLGSPGLLFLLFSSLRADTQEKEVRAMVGSDVELSCACPEGSRFDLNDVYVYWQTSEAKTVVTYHIPQNSSLENVDSRYRNRALMSPAGMLRGDFSLRLFNVTPQDEQKFHCLVLSQSLGFQEVLSVEVTLHVAANFSVPVVSAPHSPSQDELTFTCTSINGYPRPNVYWINKTDNSLLDQALQNDTVFLNMRGLYDVVSVLRIARTPSVNIGCCIENVLLQQNLTVGSQTGNDIGERDKITENPVSTGEKNAATWSILAVLCLLVVVAVAIGWVCRDRCLQHSYAGAWAVSPETELTGHV [S59A],with no effect
11,MRLGSPGLLFLLFSSLRADTQEKEVRAMVGSDVELSCACPEGSRFDLNDVYVYWQTSESKAVVTYHIPQNSSLENVDSRYRNRALMSPAGMLRGDFSLRLFNVTPQDEQKFHCLVLSQSLGFQEVLSVEVTLHVAANFSVPVVSAPHSPSQDELTFTCTSINGYPRPNVYWINKTDNSLLDQALQNDTVFLNMRGLYDVVSVLRIARTPSVNIGCCIENVLLQQNLTVGSQTGNDIGERDKITENPVSTGEKNAATWSILAVLCLLVVVAVAIGWVCRDRCLQHSYAGAWAVSPETELTGHV [T61A],with no effect
12,MRLGSPGLLFLLFSSLRADTQEKEVRAMVGSDVELSCACPEGSRFDLNDVYVYWQTSESKTVVTYHIPQNSSLENADSRYRNRALMSPAGMLRGDFSLRLFNVTPQDEQKFHCLVLSQSLGFQEVLSVEVTLHVAANFSVPVVSAPHSPSQDELTFTCTSINGYPRPNVYWINKTDNSLLDQALQNDTVFLNMRGLYDVVSVLRIARTPSVNIGCCIENVLLQQNLTVGSQTGNDIGERDKITENPVSTGEKNAATWSILAVLCLLVVVAVAIGWVCRDRCLQHSYAGAWAVSPETELTGHV [V76A],decreasing interaction strength
13,MRLGSPGLLFLLFSSLRADTQEKEVRAMVGSDVELSCACPEGSRFDLNDVYVYWQTSESKTVVTYAIPQNSSLENVDSRYRNRALMSPAGMLRGDFSLRLFNVTPQDEQKFHCLVLSQSLGFQEVLSVEVTLHVAANFSVPVVSAPHSPSQDELTFTCTSINGYPRPNVYWINKTDNSLLDQALQNDTVFLNMRGLYDVVSVLRIARTPSVNIGCCIENVLLQQNLTVGSQTGNDIGERDKITENPVSTGEKNAATWSILAVLCLLVVVAVAIGWVCRDRCLQHSYAGAWAVSPETELTGHV [H66A],decreasing interaction strength
14,MRLGSPGLLFLLFSSLRADTQEKEVRAMVGSDVELSCACPEGSRFDLNDVYVYWQTSESKTVVAYHIPQNSSLENVDSRYRNRALMSPAGMLRGDFSLRLFNVTPQDEQKFHCLVLSQSLGFQEVLSVEVTLHVAANFSVPVVSAPHSPSQDELTFTCTSINGYPRPNVYWINKTDNSLLDQALQNDTVFLNMRGLYDVVSVLRIARTPSVNIGCCIENVLLQQNLTVGSQTGNDIGERDKITENPVSTGEKNAATWSILAVLCLLVVVAVAIGWVCRDRCLQHSYAGAWAVSPETELTGHV [T64A],with no effect
15,MRLGSPGLLFLLFSSLRADTQEKEVRAMVGSDVELSCACPEGSRFDLNDVYVYWQTSESKTVVTYHIPQNSSLENVDSRYRNRALMAPAGMLRGDFSLRLFNVTPQDEQKFHCLVLSQSLGFQEVLSVEVTLHVAANFSVPVVSAPHSPSQDELTFTCTSINGYPRPNVYWINKTDNSLLDQALQNDTVFLNMRGLYDVVSVLRIARTPSVNIGCCIENVLLQQNLTVGSQTGNDIGERDKITENPVSTGEKNAATWSILAVLCLLVVVAVAIGWVCRDRCLQHSYAGAWAVSPETELTGHV [S87A],with no effect
16,MRLGSPGLLFLLFSSLRADTQEKEVRAMVGSDVELSCACPEGSRFDLNDVYVAWQTSESKTVVTYHIPQNSSLENVDSRYRNRALMSPAGMLRGDFSLRLFNVTPQDEQKFHCLVLSQSLGFQEVLSVEVTLHVAANFSVPVVSAPHSPSQDELTFTCTSINGYPRPNVYWINKTDNSLLDQALQNDTVFLNMRGLYDVVSVLRIARTPSVNIGCCIENVLLQQNLTVGSQTGNDIGERDKITENPVSTGEKNAATWSILAVLCLLVVVAVAIGWVCRDRCLQHSYAGAWAVSPETELTGHV [Y53A],disrupting interaction strength
17,MRLGSPGLLFLLFSSLRADTQEKEVRAMVGSDVELSCACPEGSRFDLNDVYVFWQTSESKTVVTYHIPQNSSLENVDSRYRNRALMSPAGMLRGDFSLRLFNVTPQDEQKFHCLVLSQSLGFQEVLSVEVTLHVAANFSVPVVSAPHSPSQDELTFTCTSINGYPRPNVYWINKTDNSLLDQALQNDTVFLNMRGLYDVVSVLRIARTPSVNIGCCIENVLLQQNLTVGSQTGNDIGERDKITENPVSTGEKNAATWSILAVLCLLVVVAVAIGWVCRDRCLQHSYAGAWAVSPETELTGHV [Y53F],disrupting interaction strength
18,MRLGSPGLLFLLFSSLRADTQEKEVRAMVGSDVELSCACPEGSRFDLNDVYVYWATSESKTAVTYHIPQNSSLENVDSRYRNRALMSPAGMLRGDFSLRLFNVTPQDEQKFHCLVLSQSLGFQEVLSVEVTLHVAANFSVPVVSAPHSPSQDELTFTCTSINGYPRPNVYWINKTDNSLLDQALQNDTVFLNMRGLYDVVSVLRIARTPSVNIGCCIENVLLQQNLTVGSQTGNDIGERDKITENPVSTGEKNAATWSILAVLCLLVVVAVAIGWVCRDRCLQHSYAGAWAVSPETELTGHV [Q55A;V62A],disrupting interaction strength
